Target: TSLP, Q969D9
Experiment: Kd (SPR)

| Binder | Kd [nM] |
| --- | --- |
| unnamed (protein) chain 1: QMQLVESGGGVVQPGRSLRLSCAASGFTFRTYGMHWVRQAPGKGLEWVAVIWYDGSNKHYADSVKGRFTITRDNSKNTLNLQMNSLRAEDTAVYYCARSPRYDDYYEAFDVWGQGTMVTVSS chain 2: SYVLTQPPSVSVAPGQTARITCGGNNLGSKSVHWYQQKPGQAPVLVVYDDSDRPSWIPERFSGSNSGNTATLTISRGEAGDEADYYCQVWDSSSDHVVFGGGTKLTVL | 186 |
| unnamed (protein) chain 1: QMQLVESGGGVVQPGRSLRLSCAASGFTFSTFAMHWVRQAPGKGLEWVAVIWYDGSNKHYADSVKGRFTITRDNSKNTLNLQMNSLRAEDTAVYYCARAPRYDWYYEAFDVWGQGTMVTVSS chain 2: SYVLTQPPSVSVAPGQTARITCGGNNLGSKSVHWYQQKPGQAPVLVVYDDSDRPSWIPERFSGSNSGNTATLTISRGEAGDEADYYCQVWDSSSDHVVFGGGTKLTVL | 90.8 |
| unnamed (protein) chain 1: QMQLVESGGGVVQPGRSLRLSCAASGFTFRTYGMHWVRQAPGKGLEWVAVIWYDGSNKHYADSVKGRFTITRDNSKNTLNLQMNSLRAEDTAVYYCARAPRYDDYVEAFDVWGQGTMVTVSS chain 2: SYVLTQPPSVSVAPGQTARITCGGNNLGSKSVHWYQQKPGQAPVLVVYDDSDRPSWIPERFSGSNSGNTATLTISRGEAGDEADYYCQVWDSSSDHVVFGGGTKLTVL | 44.6 |
| unnamed (protein) chain 1: QMQLVESGGGVVQPGRSLRLSCAASGFTFRTYGMHWVRQAPGKGLEWVAVIWYDGSNKHYADSVKGRFTITRDNSKNTLNLQMNSLRAEDTAVYYCARAPRYDEYLEAFDVWGQGTMVTVSS chain 2: SYVLTQPPSVSVAPGQTARITCGGNNLGSKSVHWYQQKPGQAPVLVVYDDSDRPSWIPERFSGSNSGNTATLTISRGEAGDEADYYCQVWDSSSDHVVFGGGTKLTVL | 129 |
| unnamed (protein) chain 1: QMQLVESGGGVVQPGRSLRLSCAASGFTFRTYGMHWVRQAPGKGLEWVAVIWYDGSNKHYADSVKGRFTITRDNSKNTLNLQMNSLRAEDTAVYYCARSPRYDDYWEAFDVWGQGTMVTVSS chain 2: SYVLTQPPSVSVAPGQTARITCGGNNLGSKSVHWYQQKPGQAPVLVVYDDSDRPSWIPERFSGSNSGNTATLTISRGEAGDEADYYCQVWDSSSDHVVFGGGTKLTVL | 197 |

Now from value to binder:

| Kd [nM] | Binder |
| --- | --- |
| 52.3 | unnamed (protein) chain 1: QMQLVESGGGVVQPGRSLRLSCAASGFTFRTYGMHWVRQAPGKGLEWVAVIWYDGSNKHYADSVKGRFTITRDNSKNTLNLQMNSLRAEDTAVYYCARAPRYYYYYEAFDVWGQGTMVTVSS chain 2: SYVLTQPPSVSVAPGQTARITCGGNNLGSKSVHWYQQKPGQAPVLVVYDDSDRPSWIPERFSGSNSGNTATLTISRGEAGDEADYYCQVWDSSSDHVVFGGGTKLTVL |
| 61.1 | unnamed (protein) chain 1: QMQLVESGGGVVQPGRSLRLSCAASGFTFRTYGMHWVRQAPGKGLEWVAVIWYDGSNKHYADSVKGRFTITRDNSKNTLNLQMNSLRAEDTAVYYCARAPRYDDLWEAFDVWGQGTMVTVSS chain 2: SYVLTQPPSVSVAPGQTARITCGGNNLGSKSVHWYQQKPGQAPVLVVYDDSDRPSWIPERFSGSNSGNTATLTISRGEAGDEADYYCQVWDSSSDHVVFGGGTKLTVL |
| 718 | unnamed (protein) chain 1: QMQLVESGGGVVQPGRSLRLSCAASGFTFSTYAMHWVRQAPGKGLEWVAVIWYDGSNKHYADSVKGRFTITRDNSKNTLNLQMNSLRAEDTAVYYCARAPRYDDYWEAFDVWGQGTMVTVSS chain 2: SYVLTQPPSVSVAPGQTARITCGGNNLGSKSVHWYQQKPGQAPVLVVYDDSDRPSWIPERFSGSNSGNTATLTISRGEAGDEADYYCQVWDSSSDHVVFGGGTKLTVL |
| 170 | unnamed (protein) chain 1: QMQLVESGGGVVQPGRSLRLSCAASGFTFRTYGMHWVRQAPGKGLEWVAVIWYDGSNKHYADSVKGRFTITRDNSKNTLNLQMNSLRAEDTAVYYCARAPRYDEHWEAFDVWGQGTMVTVSS chain 2: SYVLTQPPSVSVAPGQTARITCGGNNLGSKSVHWYQQKPGQAPVLVVYDDSDRPSWIPERFSGSNSGNTATLTISRGEAGDEADYYCQVWDSSSDHVVFGGGTKLTVL |
| 633 | unnamed (protein) chain 1: QMQLVESGGGVVQPGRSLRLSCAASGFTFSTYAMHWVRQAPGKGLEWVAVIWYDGSNKHYADSVKGRFTITRDNSKNTLNLQMNSLRAEDTAVYYCARAPRYDEYWEAFDVWGQGTMVTVSS chain 2: SYVLTQPPSVSVAPGQTARITCGGNNLGSKSVHWYQQKPGQAPVLVVYDDSDRPSWIPERFSGSNSGNTATLTISRGEAGDEADYYCQVWDSSSDHVVFGGGTKLTVL |
